Common to all, as to assay: co-IP (IP anti-Myc beads, IB anti-HA), band intensity by ImageJ
Common to all, as to conditions: chain shown with the change; NB-ARC-HA co-expressed with NB-ARC-Myc; parent: 1.00

The target of experiment [1] is T1, Tm-2^2 NB-ARC (D481V, L233A), Q71BG9.
T1 chain: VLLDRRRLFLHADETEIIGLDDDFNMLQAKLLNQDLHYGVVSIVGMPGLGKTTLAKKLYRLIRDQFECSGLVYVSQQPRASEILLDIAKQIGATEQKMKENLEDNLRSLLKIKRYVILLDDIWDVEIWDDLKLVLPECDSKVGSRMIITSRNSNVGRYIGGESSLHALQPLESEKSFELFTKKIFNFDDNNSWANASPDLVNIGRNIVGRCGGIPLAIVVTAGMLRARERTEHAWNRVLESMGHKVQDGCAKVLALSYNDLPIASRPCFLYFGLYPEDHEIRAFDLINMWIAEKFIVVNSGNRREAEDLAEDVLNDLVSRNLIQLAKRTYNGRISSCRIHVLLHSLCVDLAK

The target in experiment [2] is T2, Tm-2^2 NB-ARC (D481V, L246A), Q71BG9.
T2 chain: T1 chain with A93L, L106A

Experiment [3] concerns the target T3, Tm-2^2 NB-ARC (D481V, L242A), Q71BG9.
T3 chain: T1 chain with A93L, L102A

Numbering of substitutions follows the chain as printed. Names and notes keep the numbering of the source.

B1: Tm-2^2 NB-ARC (D481V), Q71BG9 L233A; D481V (protein)
chain: T1 chain
Consider B1, for which the ratio to parent in experiment [1] amounted to 0.64.

B2: Tm-2^2 NB-ARC (D481V), Q71BG9 L246A; D481V (protein)
chain: T1 chain with A93L, L106A
For B2, in experiment [2], the ratio to parent was determined as 0.45.

B3: Tm-2^2 NB-ARC (D481V), Q71BG9 L242A; D481V (protein)
chain: T1 chain with A93L, L102A
As for B3, the ratio to parent in experiment [3] is 0.62.

The record behind these values is PMC7205312.
